For assay [1], the target named is TNF-α. In words: competition ELISA against plate-bound TNFRI190; relative affinity from IC50. (In an ELISA, binding on a coated surface is turned into a signal by an enzyme label.)
In assay [2] the target is TNF-α. Kind of assay: cell-based or functional assay.

Turning to “Met-TNFRI126 (from UniProt P19438 41-166) (receptor)”, the Result Affinity (%) relative to wild-type TNFRI126 with TNF-α [1] was determined as 100%.

“Met-TNFRI171 (from UniProt P19438 41-211) (receptor)”: the Relative activity (cell based assay) (Folds) with TNF-α [2] turned out to be 1 fold.

The values are drawn from patent US20130237472A1.
